This experiment has as its target complement C1q, P02745;P02746;P02747. The experiment is described as follows: MST. Particulars: chain shown with the change.

This note sets out measurements from PMC11059001.

A word on the Kd: it is the concentration at which binding is half-saturated.

B1: truncated Trichinella spiralis calreticulin TsCRT^Δ (22-209, GSG linker, 305-364) D139A; H149A (protein)
chain: EPTIYLKETFDDGDAWKERWVQSKHKDDYGEWQLSHGKLFADENDMGLKTMQDARFYSLSRKFDKVVDNKDKPLVIVYTVKHEQDIDCGGGYIKLMLENTDLEDFNSDTPYRIMFGPAICGPEKRAVASILWHDGKNYEKRKNAIAMADIFTHAYKLIIFPNNSYEIWVNNDKEAYGRLEDDWTMTEPGSGPVPELYRYKGLGAIGFELWQVKSGTIFDNILITDDPEYAKEFIDKQLEALRPIEKVESDK
The molecule B1 returned a dissociation constant (Kd) of 19 µM.

B2: truncated Trichinella spiralis calreticulin TsCRT^Δ (22-209, GSG linker, 305-364) C141A; K145A (protein)
chain: EPTIYLKETFDDGDAWKERWVQSKHKDDYGEWQLSHGKLFADENDMGLKTMQDARFYSLSRKFDKVVDNKDKPLVIVYTVKHEQDIDCGGGYIKLMLENTDLEDFNSDTPYRIMFGPDIAGPEARAVHSILWHDGKNYEKRKNAIAMADIFTHAYKLIIFPNNSYEIWVNNDKEAYGRLEDDWTMTEPGSGPVPELYRYKGLGAIGFELWQVKSGTIFDNILITDDPEYAKEFIDKQLEALRPIEKVESDK
B2 displayed a dissociation constant Kd of 34.8 µM.

B3: truncated Trichinella spiralis calreticulin TsCRT^Δ (22-209, GSG linker, 305-364) M135A; I151A (protein)
chain: EPTIYLKETFDDGDAWKERWVQSKHKDDYGEWQLSHGKLFADENDMGLKTMQDARFYSLSRKFDKVVDNKDKPLVIVYTVKHEQDIDCGGGYIKLMLENTDLEDFNSDTPYRIAFGPDICGPEKRAVHSALWHDGKNYEKRKNAIAMADIFTHAYKLIIFPNNSYEIWVNNDKEAYGRLEDDWTMTEPGSGPVPELYRYKGLGAIGFELWQVKSGTIFDNILITDDPEYAKEFIDKQLEALRPIEKVESDK
For B3, the Kd stood at 5.99 µM.

B4: truncated Trichinella spiralis calreticulin TsCRT^Δ (22-209, GSG linker, 305-364) W323A; V325A (protein)
chain: MGSSHHHHHHSSGENLYFQGGSEPTIYLKETFDDGDAWKERWVQSKHKDDYGEWQLSHGKLFADENDMGLKTMQDARFYSLSRKFDKVVDNKDKPLVIVYTVKHEQDIDCGGGYIKLMLENTDLEDFNSDTPYRIMFGPDICGPEKRAVHSILWHDGKNYEKRKNAIAMADIFTHAYKLIIFPNNSYEIWVNNDKEAYGRLEDDWTMTEPGSGPVPELYRYKGLGAIGFELAQAKSGTIFDNILITDDPEYAKEFIDKQLEALRPIEKVESDK
In turn, B4 showed a Kd of 22.9 µM.
